Measurements published in patent US8735085B2, “Method for diagnosing diseases using a protein or degradation product based on half-life” (Becton, Dickinson and Company, priority 2007, dated 2014).
Read-outs that look alike come from different tables or passages of the source. No end group written: not given here.

What was measured:
[1] = Time-course stability of spiked isotope-labeled (AQUA) peptides in serum and plasma samples, MALDI-TOF MS, first-order fit; type: in vitro ADME, human; conditions: for T1/2 (h) Citrate / T1/2 (h) EDTA / T1/2 (h) Heparin: plasma
Excerpt: Methods of determining the half-lives of parent peptides may be determined by a process, which includes by example first spiking the peptide into one or more collection vehicles such as blood collection tubes comprising samples of biological fluid. In some embodiments, the collection vehicle is a swab. As described in an example disclosed herein, commercially available blood collection tubes sampled for determining half-lives included P100, EDTA, citrate, or heparin blood collection containers. The peak intensities of the peptide in each sample are measured at various points in time. […] Accordingly, a line may be constructed for each sample. The slope of the line (−kobs), representing the kinetic rate of the first-order degradation, may be used to compute a half-life value. That is, a kinetic rate constant can be determined by fitting the data with: Ln(I)=−kobs t+C, where I is the peak intensity, or the peak area, t is the incubation time period in the study, C is a constant, and kobs is the observed (or apparent) rate constant. The half-life of the peptide is determined by t1/2=Ln(2)/kobs.
A direct test for stability of a peptide biomarker in a collected blood sample was carried out by monitoring its change during a time-course incubation. It was discovered that the spiked peptides themselves are subject to preanalytical degradation, and thus the spiked peptides became our focus for studying the relative instability of peptides in various blood samples. The stability of AQUA FPA was tested by adding it into either a serum or plasma sample (either BD P100, EDTA, citrate, or heparin plasma) collected from a single venipuncture, or a pooled serum or plasma sample from three healthy individuals. After the spiked sample was incubated for specified periods of time, the peptides were measured by MALDI-TOF MS.
Human blood from healthy individuals was directly drawn into evacuated tubes to obtain serum and plasma samples, as described previously (20). Briefly, serum tubes (BD product #366430) were placed at room temperature (r.t., approx. 24° C.) to clot for 60 min after the collection of the blood, and then centrifuged at 2,500×g for 15 min. at room temperature. Plasma tubes, including citrate tube (BD product #369714), heparin tube (BD product #367886), EDTA tube (BD product #367525), and BD P100 tube (BD product #366456), were spun immediately (within 10 min. after blood was drawn), for 15 min at 2,500×g, and at room temperature to minimize the handling condition and to prevent possible platelet activation. Both plasma and serum samples were pipetted out of the blood-collection tubes into Eppendorf tubes and were frozen within 15 minutes at −80° C. until use. With these optimized handling processes, full acquisition and processing time was minimized to approximately 30 minutes for plasma and 90 minutes for serum.
Isotopically labeled peptides were purchased from Sigma-Genosys (The Woodlands, Tex.). All peptides were synthesized with one stable isotopic amino acid residue, either L-Arginine-13C6 15N4, or L-Phenylalanine-13C9 15N1, with mass of 10 higher than its natural counterpart. The quality of each peptide was verified by HPLC, MALDI-TOF MS (FIG. 6), and amino acid analysis by the vendor with purity higher than 98%. […] The peptides were diluted with relevant solvents to make stocks of 400 fmol/μL for spiking experiments.
The frozen serum and plasma were thawed (once only) in a room temperature water bath for approximately 5 minutes, in order to minimize the dwell time by temperature exposure of the samples. Soluble AQUA peptide (50 μL in water) was spiked into a thawed serum or plasma sample (450 μL), resulting in a final concentration of 40 fmol/μL. The samples were incubated at room temperature. A 45-μL aliquot was withdrawn at each specified time, and quenched by adding 5 μL of 2% TFA solution. […]

[2] = Sequential multi-step reaction (SMSR) kinetic modeling of FPA and its fragments in pooled heparin plasma; type: in vitro ADME, human; conditions: for apparent rate constants of the sequential reactions (k1-k5, truncation of the peptide) / half-lives: heparin plasma pooled from three healthy individuals; for apparent rate constants of the sequential reactions (k1-k5, truncation of the peptide): first-order SMSR simulation; for half-lives: four replicates, first-order SMSR; for T1/2 (h) in Heparin: SMSR model; for incubation time at which the truncated daughter peptide was detected: AQUA FPA spiked in heparinized plasma
Protocol: Determining half-lives of the degradation products of the peptide, however, entails further modeling and calculations. For examples, sequential multi-step reaction (SMSR) model may be used. Particularly, the half-life of each daughter peptide (e.g., FPA-1, FPA-2, FPA-3, etc.) is determined using information related to one or more of its parent peptides as well as the measured behavior of the daughter peptides creation and further degradation. Accordingly, as represented below, the peptide FPA, referred to as “a” and having a kinetic rate constant k1, is used to determine the half-life of […], referred to as “b” and having a kinetic rate constant k2, which is used to determine the half-life of FPA-2, referred to as “c” and having a kinetic rate constant of k3, and so on.
Accordingly, kj is the kinetic rate constant of step reaction j. Ii is the measured signal (i.e., the peak intensity in MALDI-TOF MS) of peptide i. For example, measured intensities of each of the degradation products of the peptide over a 4 hour time span may be seen in FIG. 3. The peak intensity of, for example, FPA-4, occurs at 2 hours, where is measures 1216.670 m/z. A0 is the initial peak intensity of the parent peptide at time 0. Since Ii=K′iCi+I0, and I0=0 after baseline subtraction, then Ii=K′iCi or Ci=KiIi (1), where
Such calculations are performed for different points in time (i.e., different values of t), so as to plot the varying intensities of each degradation product against the reaction time, as shown in FIG. 4b. The rate constant of each step reaction, kj, can be computed by simulation of the equations (2b)-(6b). Then, the half-lives for each degradation product may be calculated by the equation t1/2=Ln(2)/kj.
For determining kinetic rate constants in a complex sequential reaction observed in this study, analytical solutions were derived from, a first order sequential multi-step reaction (SMSR), as explained above in the discussion concerning equations (1)-(6), (2a)-(6a), and (2b)-(6b). MATLAB (Version 7.0, Mathworks) was employed to numerically simulate this model with the experimental data, and reaction rate constants were then determined in the sequential pattern following the chain reaction sequences. The modeling process was optimized to achieve a best fit to R^2 (goodness-of-fit) calculation.
The observed decrease of the spiked AQUA FPA peptide is caused by the intrinsic amino-peptidase activity (9, 15, 20, 33) as its six fragments, sequentially truncated from the amino terminus, can be detected during the incubation (FIG. 3, FIG. 8). The process was easily observed in heparinized plasma, since the relative instability in this sample facilitated detection of the various truncated peptides within a reasonable experimental time frame (FIG. 3). […] During further incubation, smaller daughter peptides were detected: FPA-3 at 30 min, FPA-4 at one hour, and both FPA-5 and FPA-6 at two hours (FIG. 3, FIG. 8). None of these peptides was detected after eight-hour incubation.
The measurement of the degradation products was sufficiently unambiguous as to allow definition of a kinetic model of the degradation process. To determine the rate constants of the sequential reaction, the fragments of FPA: FPA-1, FPA-2, FPA-3, FPA-4 (FIG. 3), were measured in heparin plasma pooled from three healthy individuals with four replicates, and the average of peak intensities were modeled according to a first-order SMSR (FIG. 4). Simulation of the peak intensities of time-course MS (FIG. 4B) gave apparent rate constants of the sequential reactions: k1=2.1, k2=0.29, k3=1.96, k4=1.6, and k5=0.04 h^−1 for the first five step truncations (FIG. 4A), with goodness-of-fit (R^2) of 0.84, 0.78, 0.77, 0.87, and 0.76, respectively. Accordingly, the half-lives of FPA, FPA-1, FPA-2, FPA-3, and FPA-4 are 0.29, 2.1, 0.31, 0.38, and 15.2 hours, respectively (FIG. 4A). […]

| Substance | apparent rate constants of the sequential reactions (k1-k5, truncation of the peptide) [2] [h⁻¹] | half-lives [2] [h] | T1/2 (h) in Heparin ([2]; heparin plasma) [h] | peptidase-induced degradation of isotopic labeled peptide [1] | incubation time at which the truncated daughter peptide was detected [2] | further results |
| --- | --- | --- | --- | --- | --- | --- |
| ADSGEGDFLAEGGGVR (listed as Homo sapiens) [FPA] | 2.1 | 0.29 | 0.29 |  |  | detectable up until a period of time after collection [1]: 12 to 48 h; detection of peak after incubation [1]: still easily detected at 48 hours; time until undetectable after collection [1]: undetectable in less than two hours; T1/2 (h) Citrate ([1]; human): <0.1 h; T1/2 (h) EDTA ([1]; human): 3.51 ± 0.05 h; T1/2 (h) Heparin ([1]; human): 0.55 ± 0.02 h; T1/2 (h) Serum ([1]; human, serum): 0.30 ± 0.01 h; half-life in serum (too short to be measured) ([1]; human, serum): less than 15 min. |
| BNP: brain natriuretic peptide |  |  |  | instability has been observed |  |  |
| DFLAEGGGVR (listed as Homo sapiens) [FPA-6] |  |  |  |  | at two hours |  |
| DSGEGDFLAEGGGVR (listed as Homo sapiens) [FPA-1] | 0.29 | 2.1 | 2.1 |  | Time 0 | enhanced half-life compared to the parental FPA ([2]; heparin plasma): 7 fold |
| EGDFLAEGGGVR (listed as Homo sapiens) [FPA-4] | 0.04 | 15.2 | 15.2 |  | at one hour | enhanced half-life compared to the parental FPA ([2]; heparin plasma): 52 fold; time at which the peak intensity occurs ([2]; heparin plasma, 4 hour time span, FIG. 3): 2 h |
| GDFLAEGGGVR (listed as Homo sapiens) [FPA-5] |  |  |  |  | at two hours |  |
| GEGDFLAEGGGVR (listed as Homo sapiens) [FPA-3] | 1.6 | 0.38 | 0.38 |  | at 30 min |  |
| GLP-1: glucagon-like peptide-1 |  |  |  | instability has been observed |  |  |
| NGFKSHALQLNNRQIR-OH [C4, NGFKSHALQLNNRQIR] |  |  |  | instability has been observed |  |  |
| RPPGFSPFR [bradykinin] |  |  |  |  |  | peptidase-induced degradation of isotopic labeled peptide ([1]; blood samples, BNP, GLP-1, bradykinin data not shown): instability has been observed |
| SGEGDFLAEGGGVR (listed as Homo sapiens) [FPA-2] | 1.96 | 0.31 | 0.31 |  | Time 0 |  |
| SSKITHRIHWESASLLR (listed as Homo sapiens) [C3f] |  |  |  | instability has been observed |  | T1/2 (h) Citrate ([1]; human): 0.039 ± 0.01 h; T1/2 (h) EDTA ([1]; human): 0.082 ± 0.01 h; T1/2 (h) Heparin ([1]; human): 0.075 ± 0.01 h; T1/2 (h) Serum ([1]; human, serum): 0.079 ± 0.01 h |
